Consider 18 sequences from the DeepSol protein solubility set.

The data set is described as follows: soluble on expression in E. coli; label from the status in PepcDB or PDB records.
With “GPGSMTSPAQAQVHSAPSRHAHTSILSQQMLSTPAGHPVSQPDTSQAAPDAPVWRPTTVPWKPVDTQQSACSALPAKTDDAIAAHSLQWERDAAVGNPNDESGRVVSQAFAFPRWMGPPALTSTATSREEGDSPTATVPSMEERWSTFQRLAQASEATFRSMSEATARQHADVTAHQKEIAAYQESQRQLTLQQQQRLDSLTRECAQLRQTEASTKEVVAHQVERLVALESELQTTRVQLSEIRLAQAQCVEERKRLQQACKMHEVHTSELQASLQFADEVVRSMRQTVAACEREKNEALMQQYSNFESYRNNLIAAYDKRAAEARDEFAKRVESLQAGMLETVAKREEQLKASWEETATRMRHEYDELVRLGQQRRAAMDTELRERKEQLERDKEFMRVQQREEADMMEQRFRAREETLLDDIARRERELREREAVLRAAQAQQEVDVQRRLQAREAELRAAHDAALKRMADQAAAEREKLSENFMERLQQLSNAHMQQERELERMHREKEREMAQRYRLSGIDGGDRGEVRDRRATEYALASPSMAKEALLKKFETVEQRQRERSDKLRSAFSAQENELQPPL”, the “soluble on expression in E. coli” value was “soluble”.
As for “MSLTDVMFKSQIANQLKNLRKSRGLSLDATAQLTGVSKAMLGQIERGESSPTIATLWKIASGLEASFSAFFANDPQLLSSERSFPDDLNMKIHTLFPYAADTGLEIFEITLLDHHQQMSSPHALGVIEYIHVLEGIMKVFFDEQWHELQQGEHIRFFSDQPHGYAAVTEKAVFQNIVAYPRREGGSHHHHHH”, the “soluble on expression in E. coli” value is listed as “soluble”.
In the case of “RQVQKELGDVLVRLHNPVVLTPTTVQVTWTVDRQPQFIQGYRVMYRQTSGLQATSSWQNLDAKVPTERSAVLVNLKKGVTYEIKVRPYFNEFQGMDSESKTVRTTEE”, the “soluble on expression in E. coli” value is given as “soluble”.
Then “MGSDKIHHHHHHDAPLEQALTLAGDNRKELQQVLGHYEGDSLKHKAACFLIENMIGKGTIRYLLRESDSCYIQQEPEPDLTCITADYLIENIDLAFEVWQKYPWCKQLSFREFCRNILPYRLKQEPLDRWRSYYYTRYKMTVDSLARAGATMREIVFFFNSQHGKKYLHDAAKIPGDFSIELIEKLGGGTCDHLALNAVQLMRAVGIPLNLDILPYHGKVNGGHAYNSFTDENGKFFYFSPYEREPERNQWIAPLVQRVCYERQPEPKIGRNRWNTQLVNRLLKEVTDEYYLSDSVRLPVHTSDTVAYIATFNRGAFKVVSQGRVESNSVLHRVLPYGLLYFQMADKKGKLVPTGNPFVMTPDSIHFITPIRQTTVLNGILTYDVKRVLELGYEAYTLYYWKDGWQPVKEVTSKDSRTLDFGEVPVRSLFLVCGNTYMGRMQRPFLLEDGKPVYY”, with “not soluble”; and “MSLAELTALYTLTAQMKREGICRLLVLSGEEGWCFDHALKLRDALPGDWLWISPQLDAENHCSPSALQTLLGREFRHAVFDARHGFDAAAFAALSGTLKAGSWLVLLLPVWEEWENQPDADSLRWSDCPDPIATPHFVQHLKRVLTADNDAILWRQNQPFSLAHFTPRTDWHPATGAPQPEQQQLLQQLLTMPPGVAAVTAARGRGKSALAGQLISRIAGSAIVTAPAKAATDVLAQFAGEKFRFIAPDALLASDEQADWLVVDEAAAIPAPLLHQLVSRFPRTLLTTTVQGYEGTGRGFLLKFCARFPHLHRFELQQPIRWAQGCPLEKMVSEALVFNDENFTHTPQGNIVISAFEQTLWRSEPETPLKVYQLLSGAHYRTSPLDLRRMMDAPGQHFLQAAGENEIAGALWLVDEGGLSQELSQAVWAGFRRPRGNLVAQSLAAHGSNPLAATLRGRRVSRIAVHPARQREGTGRQLIAGALQYTHDLDYLSVSFGYTGELWRFWQRCGFVLVRMGNHREASSGCYTAMALLPMSDAGKQLAEREHYRLRRDAQALAQWNGEMLPVDPLNDAILSDDDWLELAGFAFAHRPLLTSLGCLLRLLQTSELALPALRGRLQKNASDAQLCTTLKLSGRKMLLVRQREEAAQALFALNEVRTERLRDRITQWQFFHEGHHHHHH”, with “soluble”.
To “MTLLSPGIELKETTVQSTVVNNSTGTAALAGKFQWGPAFQIKQVTNEVDLVNTFGQPTAETADYFMSAMNFLQYGNDLRVVRAVDRDTAKNSSPIAGNIEYTISTPGSNYAVGDKITVKYVSDDIETEGKITEVDADGKIKKINIPTAKIIAKAKEVGEYPTLGSNWTAEISSSSSGLAAVITLGKIITDSGILLAEIENAEAAMTAVDFQANLKKYGIPGVVALYPGELGDKIEIEIVSKADYAKGASALLPIYPGGGTRASTAKAVFGYGPQTDSQYAIIVRRNDAIVQSVVLSTKRGGKDIYDSNIYIDDFFAKGGSEYIFATAQNWPEGFSGILTLSGGLSSNAEVTAGDLMEAWDFFADRESVDVQLFIAGSCAGESLETASTVQKHVVSIGDVRQDCLVLCSPPRETVVGIPVTRAVDNLVNWRTAAGSYTDNNFNISSTYAAIDGNYKYQYDKYNDVNRWVPLAADIAGLCARTDNVSQTWMSPAGYNRGQILNVIKLAIETP” belongs “soluble”; to “MSKATTPGDQPKVSEMDFYQLLGVEKMASEAEIKSAYRKLALKYHPDRNPNDAHAQEEFKKVSIAYSVLSDPNKRRQYDVSGPSENQLDFEGFDVSEMGGVGRVFGALFSKLGVPIPTQIVPKVLAQARHICMGQECDVQARQLPPGETVTSSVSKQHAHFYEINIQEEHRKNGVAIICKSSSSKFKLVLFDKEGGVRMIQESGKRGKAGTQADMFFVPYNVANIQEFNAMKYHLEDKETPLAFHYLDSFEMQTATLLETRKHYIAVYGDNWISDVKYSITFLPVEPSAVEQLNEIQDTEKSISIIKKEMLDFQREFTEAKRKYDEAVAKLKVQDDTILKALAHREELYNEVLQKSQEPYNKKVSPSKSSGGLLGWFK”, “not soluble”.
On to “SPAPVQDPHLIKVTVKTPKDKEDFSVTDTCTIQQLKEEISQRFKAHPDQLVLIFAGKILKDPDSLAQCGVRDGLTVHLVIKRQHRAMGNECPA”, for which the “soluble on expression in E. coli” value is given as “soluble”.
“MARPKSEDKKQALLEAATQAIAQSGIAASTAVIARNAGVAEGTLFRYFATKDELINTLYLHLKQDLCQSMIMELDRSITDAKMMTRFIWNSYISWGLNHPARHRAIRQLAVSEKLTKETEQRADDMFPELRDLCHRSVLMVFMSDEYRAFGDGLFLALAETTMDFAARDPARAGEYIALGFEAMWRALTREEQ”: the “soluble on expression in E. coli” value is “not soluble”.
Take “MSLSEPSVQADTRLNALIVQDIPERMPIYRALIEQLDVPSTLIEIEAMIVDVNTDLVNELGVTWGAQIGTTSLGYGDLGLRPGNGLPVDGAAAELAPGTLGISVSTRLAARLRALESDGQANILSQPSILTADNLGAMIDLSDTFYIRTLGERVATVTPVTVGTSLRVTPRYIAAKGGRQVELAIDIEDGRVLQEYPIDGLPRVRKSSISTLAVVGDEQTLLIGGYNNRRDEEQVEKVPLLGDIPGLGFLFSSKSRAVQRRERLFLIRPRVVAIEGKPVFSPVAGTSQVFMSTEGHHHHHH”: the “soluble on expression in E. coli” value is recorded as “soluble”.
For the sequence “MSIWQRVSFTHRFSQLPSAFYTLVEPQPLDNTRWVAWNGEFAQQFGLPAAQNDELLAVFSGQSEFEPFRPLAMKYAGHQFGVYNPDLGDGRGLLLAEIEHQNGTWFDIHLKGAGLTPYSRMGDGRAVLRSTIREYLCSEAMAGLGIPTTRALGMVVSDTPVYREKTEFGAMLIRMAETHVRFGHFEHLFYTNQLAEQKLLADKVIEWHFADCASAEKPYAAMFGEIVQKTADMIAYWQAYGFAHGVMNTDNMSILGQTFDYGPFGFLDDYEPGYICNHSDYQGRYAFEQQPRIALWNLSALAHALSPLVEREDLEQALSQFEGRLSQQFSRLMRSKLGLKTKIAEDGRLFESMFELLNQNHTDYTRFFRALSNLDKQPAQEVIDLFIDREAAQAWLDLYLARCELEVDEIGEPISAEQRSEQMRQTNPKYILRNYLAQLAIDKAEEGDFSEVHRLAEILRHPYDSQPEFEAYAKLPPEWGKKMEISCSSLEHHHHHH”, the “soluble on expression in E. coli” value is “not soluble”.
As to “MSDEIARLVADVFELAGLLRRSGEVVAAREGHTQARWQLLSVVSDRALTVPQAARRLGVTRQGVQRVANDLVVCGLAELRHNPDHRTSPLLVLTENGRRVLQAITERAIVVNNRLADAVDPAALQATRDSLRRMIVALKAERP”, the “soluble on expression in E. coli” value is reported as “not soluble”.
As for “MNTAVKAAVAAALVMGVSSFANAAGSNTGTVTFTGTIEDSPCSIVVGDEHQTVNLGHIGTGSLMGGKESSKVDFHIGLENCAFTTEKEASTVFSAIGNESSANPGSVALMRIGGGEMAGSSIVIGNHLGSAIKLGDAYSENLTMNGSVAAAKQTLNFKAWVKGDSAATTIDTGEFSSTVNFTISYL”, the “soluble on expression in E. coli” value is “not soluble”.
Regarding “MAHHHHHHMLLAMCRYDCVGGCRERVCGGGGGGRGKGGEKKYRTEMGRASKDKRDIYYRKAKEEGYRARSAYKLLQLHEEFNILNRDEIQTGVVVLCAAPGSWSQLLARHLREEVGGRTEKQSLGAPRIVAVDLQEMMPIEGVQLLQGDITSEATAREIIRLLNIKEDTASVNDAYVDSEEDKSAIQTDKGGRSTARRPSLAPGGRNSYSDHTNSCEKKADLVVCDGAPDVTGMHELDEYLQHHLLLAALNITTFVLRCGGTFVTKIFRGPNTPFLVAKSEVFFRHVIIAKPRSSRNASMEAFMVCQDYQPPAGYRPSFDRPLTTTTRCFTPVAPLPPAFMHLQSEGRQITQKEKKGVEDQACMMESVIVPFLACGDLSGYDADMCYDRDSDVPVLPPVHPPRQAPYMTTACKNDEDSVVATNGAEDIMKRRRVE”, the “soluble on expression in E. coli” value is given as “not soluble”.
On to “MSLGIPLSQLIVESPKPLSSGITGLDEILNLGFQARSIYEIFGPPGIGKTNFGIQLVCNSLEGIQQSEINDDKILWIETFQEMPINILRERFQKFKIVEENVKRVRITKFGQLLYFFQNLFKLSQSVRYKLVIIDGFSQLVCDHLCTLSKRGGGMIDKTIHELKCRHLILIFTVMTKYTHSTGSTIIVLNDCMNTAFQSNEFESLEEYYEILDDGSNFFVNSNNERRKNNVHILKSALVANIAMGSKDSTWEVFLRDRIGLFRDWNEQVDETVFVKSKRVKASSSQSNEGCTTIKEMRINKRNFENLRIAIVFNLHGEDRKREGRNLKRSRSSDDRNYIVKFDFDKATGQLRDIIDLKPDTANIASFPTLSTSSSSCSQVFNNIDSNDNPLPNAEGKEEIIYDSEG”, for which the “soluble on expression in E. coli” value is listed as “not soluble”.
To “MGSDKIHHHHHHMINREIAVKVQHVSKTFKLPTEATKSFRTTLVNRLRGIKGFTEQHVLKDINFDVYKGDFFGIVGRNGSGKSTLLKIISQIYVPEKGQVTVDGKMVSFIELGVGFNPELTGRENVYMNGAMLGFTKDEVDDMYNDIVDFAELHHFMNQKLKNYSSGMQVRLAFSVAIKAQGDVLILDEVLAVGDEAFQRKCNDYFMERKDSGKTTILVTHDMGAVKKYCNRAVLIEDGLVKAYGEPFDVANQYSVDNTETAEDAMNAEKISVSDIAKDLKVSLISNPRITPNDTITFEVSYEVLKDDFTYIAFSLTDIDRNIWVYNDNSLDYPTQGIGRKCISYQCQLSQLNDIKLKLEVTVRDKNGQMLLFSTAEQSPQIVIQRNDIDQDDLSALDSASGLYQRNGKWVFH” belongs “not soluble”; to “PMSEIVRVHASSGTTGKPTVVGYTRRDIAMWSEVVARALNCAGASREDFIQIAYGYGLFTGGLGLHYGSEKLGATVIPISGGNTQKQVQLMADFKTTVLACTPSYALYLAESLEEAGMTTDDISLRVGIFGAEPWTPGMRKEIEIKLGIKAMDIYGLSEVMGPGVACDCEYQAGLHVN”, “not soluble”; to “ATEPFMKGRVKLLPDILPGKNKDHEFEALVSTIQDMSLKMMELMVERPPRELILSMRRNKNPMYQINFASANISTSIAVKQELLEISKMKDRGYRLLYLLHKELQVMELKASIQMKTREEMDKQQKEYFLQQQIKTIQEELGGNINDIEVQELRTKAATMKWSSEVAETFEKELRKLERLHPQSPDYSVQMQYVQTIISLPWGVFSKDNFNLKRAQSVLDRDHFGLEKVKERIIEHLAVLKMKGDMKSPIICLYGPPGVGKTSLGKSIAESLGRKYVRISLGGLHDEAEIRGHRRTYIGAMCGRIIQSLQRAGTSNPVFVLDEIDKIDSDYKGDPSSALLEVLDPEQNNAFHDNYLDIDFDLSHVLFIATANSLSSISRPLLDRMELIDV”, “not soluble”.
